Results: patent US20040014147A1 (RIGEL PHARMACEUTICALS, published 2004)
Read-outs that look alike come from different tables or passages of the source. Where no end group is shown, it is not given here.

B1: peptide AR02E8 wt (peptide, not shown: large carriers)
peptide: DTMQVQCGVCRSGYVVAFWDVGP
modifications: cysteine pairing not given here; also: expressed as GAL4/BFP-linker-peptide fusion, fusion sequences not given here
B2: peptide AR02E8YV (peptide, not shown: large carriers)
peptide: DTMQVQCGVCRSGAGVAFWDVGP
B3: peptide AR02E8VC (peptide, not shown: large carriers)
peptide: DTMQVQCGAGRSGYVVAFWDVGP
B4: peptide AR02E8RS (peptide, not shown: large carriers)
peptide: DTMQVQCGVCAGGYVVAFWDVGP

What was measured:
[1] = target: T1, human adenosine kinase (human, UniProt P55263 22-362); experiment: cell-based or functional assay
T1 sequence (P55263 other isoform, or with tags, fused parts or gaps): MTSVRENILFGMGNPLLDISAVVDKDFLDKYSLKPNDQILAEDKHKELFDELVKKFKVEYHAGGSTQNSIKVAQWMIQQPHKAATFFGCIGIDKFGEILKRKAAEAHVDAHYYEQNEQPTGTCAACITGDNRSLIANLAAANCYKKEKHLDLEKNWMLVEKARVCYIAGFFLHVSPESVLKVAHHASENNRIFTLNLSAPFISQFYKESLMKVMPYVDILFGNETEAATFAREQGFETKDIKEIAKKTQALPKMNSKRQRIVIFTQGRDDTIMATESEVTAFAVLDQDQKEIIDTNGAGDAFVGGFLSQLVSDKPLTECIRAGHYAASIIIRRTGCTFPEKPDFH

[2] = target: T1, human adenosine kinase; experiment: cell-based or functional assay; remark: listed apart in the source

Binder | Reporter Ratio [1] | endogenous ε inhibition ratio [1] | Reporter Ratio [2]
B1 | 1.77 | 15.3 | 2.93
B2 |  |  | 1.07
B3 |  |  | 1.13
B4 |  |  | 1.46
